Reference: patent US20090276160A1 (published 2009)

How the values were obtained:
Assay in all cases: cell-based or functional assay
[1] = target: T1, Hepatocyte growth factor activator (HGFA), activated 34 kDa short form, residues Val373 to Ser655 with a … (human, UniProt Q04756 408-655, single N-acetylglucosamine attached to Asn74 (chymotrypsinogen numbering))
T1 sequence 1: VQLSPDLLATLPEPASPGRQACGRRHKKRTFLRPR
T1 sequence 2: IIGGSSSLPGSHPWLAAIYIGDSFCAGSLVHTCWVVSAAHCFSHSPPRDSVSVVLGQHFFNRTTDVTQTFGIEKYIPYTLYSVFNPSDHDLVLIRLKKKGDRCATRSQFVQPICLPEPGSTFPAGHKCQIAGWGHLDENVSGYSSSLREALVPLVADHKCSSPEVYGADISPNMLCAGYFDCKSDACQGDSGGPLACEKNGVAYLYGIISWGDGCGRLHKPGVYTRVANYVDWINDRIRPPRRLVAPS

[2] = target: Factor XIa (Haematologic Technologies) (human, UniProt P03951 19-625)
[3] = target: T2, Factor XIIa (American Diagnostica) (human, UniProt P00748 20-615, limits assumed)
T2 sequence (looked up): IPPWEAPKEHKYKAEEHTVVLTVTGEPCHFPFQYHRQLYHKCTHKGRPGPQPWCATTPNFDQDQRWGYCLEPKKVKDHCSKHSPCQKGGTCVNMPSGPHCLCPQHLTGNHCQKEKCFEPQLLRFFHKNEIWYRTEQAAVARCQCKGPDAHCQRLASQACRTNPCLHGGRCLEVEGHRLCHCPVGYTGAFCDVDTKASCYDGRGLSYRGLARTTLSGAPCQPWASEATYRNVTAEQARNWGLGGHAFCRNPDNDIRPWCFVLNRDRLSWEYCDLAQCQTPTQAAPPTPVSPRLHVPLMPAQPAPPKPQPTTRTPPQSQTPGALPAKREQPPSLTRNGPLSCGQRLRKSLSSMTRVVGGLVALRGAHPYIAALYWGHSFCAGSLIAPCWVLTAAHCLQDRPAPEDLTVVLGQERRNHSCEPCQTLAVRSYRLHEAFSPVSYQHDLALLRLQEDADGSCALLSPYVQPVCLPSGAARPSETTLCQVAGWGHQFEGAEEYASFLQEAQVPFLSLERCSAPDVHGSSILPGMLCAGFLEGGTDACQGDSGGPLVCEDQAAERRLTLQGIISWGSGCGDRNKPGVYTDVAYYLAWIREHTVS

[4] = target: Thrombin (Haematologic Technologies) (human, UniProt P00734 328-622)
[5] = target: Tissue factor/factor VIIa complex: human tissue factor (residues 1-219) with human recombinant FVIIa (human, UniProt P13726 33-251; P08709 61-466)
[6] = target: Factor Xa (Haematologic Technologies) (human, UniProt P00742 41-179; P00742 235-488, limits assumed)
[7] = target: Activated Protein C (Haematologic Technologies) (human, UniProt P04070 43-197; P04070 212-461)
[8] = target: T3, Complement factor C1s (Calbiochem) (human, UniProt P09871 16-688)
T3 sequence (looked up): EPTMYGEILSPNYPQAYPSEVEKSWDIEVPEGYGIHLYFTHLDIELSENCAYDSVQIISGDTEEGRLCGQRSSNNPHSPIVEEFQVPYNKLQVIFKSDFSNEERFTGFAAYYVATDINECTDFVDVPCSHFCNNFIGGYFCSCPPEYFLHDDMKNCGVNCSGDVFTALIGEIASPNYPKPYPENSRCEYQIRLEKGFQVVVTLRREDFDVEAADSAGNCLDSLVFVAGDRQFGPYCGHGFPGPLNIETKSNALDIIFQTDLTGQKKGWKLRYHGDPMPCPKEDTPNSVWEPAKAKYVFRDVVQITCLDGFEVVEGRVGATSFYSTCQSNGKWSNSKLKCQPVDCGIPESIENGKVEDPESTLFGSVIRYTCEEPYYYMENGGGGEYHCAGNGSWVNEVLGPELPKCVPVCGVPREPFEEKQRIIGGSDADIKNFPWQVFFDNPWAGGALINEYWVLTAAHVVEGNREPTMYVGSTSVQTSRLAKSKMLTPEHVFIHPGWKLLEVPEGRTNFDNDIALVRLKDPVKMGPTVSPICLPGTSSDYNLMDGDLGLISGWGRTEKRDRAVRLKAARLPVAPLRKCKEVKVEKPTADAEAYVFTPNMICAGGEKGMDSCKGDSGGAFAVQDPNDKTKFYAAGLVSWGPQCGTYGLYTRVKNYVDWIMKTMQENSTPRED

[9] = target: tPA (Activase, Genentech) (human, UniProt P00750 36-562)
[10] = target: uPA (Chemicon) (human, UniProt P00749 21-431, limits assumed)
[11] = target: T4, Matriptase (residues 615-855) (human, UniProt Q9Y5Y6 615-855)
T4 sequence (looked up): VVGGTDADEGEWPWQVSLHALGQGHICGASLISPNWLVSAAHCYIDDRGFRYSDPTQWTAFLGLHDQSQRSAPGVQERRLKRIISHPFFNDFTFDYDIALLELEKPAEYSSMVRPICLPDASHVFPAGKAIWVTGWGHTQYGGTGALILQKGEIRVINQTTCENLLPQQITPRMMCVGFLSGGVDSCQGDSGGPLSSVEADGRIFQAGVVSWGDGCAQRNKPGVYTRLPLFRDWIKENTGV

[12] = target: Hepsin (residues 45-417) (human, UniProt P05981 45-417)
[13] = target: Bovine trypsin (Worthington) (bovine, UniProt P00760 24-246)
[14] = target: Plasmin (Haematologic Technologies) (human, UniProt P00747 97-810, limits assumed)
[15] = target: Plasma kallikrein (American Diagnostica) (human, UniProt P03952 20-638)
[16] = target: Chymotrypsin (Sigma) (human, UniProt P17538 19-263)
Sequence of Chymotrypsin (Sigma) (P17538 19-263): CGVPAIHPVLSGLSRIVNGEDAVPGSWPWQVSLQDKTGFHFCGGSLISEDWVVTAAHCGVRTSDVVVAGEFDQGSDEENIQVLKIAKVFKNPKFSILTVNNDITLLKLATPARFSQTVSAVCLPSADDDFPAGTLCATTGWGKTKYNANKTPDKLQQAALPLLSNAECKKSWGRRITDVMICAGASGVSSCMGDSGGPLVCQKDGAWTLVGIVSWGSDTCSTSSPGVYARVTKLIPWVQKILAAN

Sequence of Tissue factor/factor VIIa complex: human tissue factor (residues 1-219) with human recombinant FVIIa (P13726 33-251 limits assumed, chain 1 of 2): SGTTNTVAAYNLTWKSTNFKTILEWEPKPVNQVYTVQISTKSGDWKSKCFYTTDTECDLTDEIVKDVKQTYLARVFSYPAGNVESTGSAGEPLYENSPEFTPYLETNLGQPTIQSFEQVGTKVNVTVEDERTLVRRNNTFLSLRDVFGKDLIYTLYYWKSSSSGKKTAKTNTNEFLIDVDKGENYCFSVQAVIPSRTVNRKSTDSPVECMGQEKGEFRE
Sequence of Tissue factor/factor VIIa complex: human tissue factor (residues 1-219) with human recombinant FVIIa (P08709 61-466 limits assumed, chain 2 of 2): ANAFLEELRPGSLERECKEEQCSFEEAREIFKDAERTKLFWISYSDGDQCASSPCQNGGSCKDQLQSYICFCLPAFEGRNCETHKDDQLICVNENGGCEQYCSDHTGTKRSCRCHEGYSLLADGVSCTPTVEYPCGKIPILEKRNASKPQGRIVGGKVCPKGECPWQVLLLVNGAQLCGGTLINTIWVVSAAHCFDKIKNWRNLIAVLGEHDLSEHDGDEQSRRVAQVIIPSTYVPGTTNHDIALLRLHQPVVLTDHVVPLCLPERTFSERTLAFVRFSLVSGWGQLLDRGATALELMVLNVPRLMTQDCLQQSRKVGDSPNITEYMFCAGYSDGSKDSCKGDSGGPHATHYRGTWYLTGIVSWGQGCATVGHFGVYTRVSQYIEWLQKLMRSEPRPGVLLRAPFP
Sequence of Activated Protein C (Haematologic Technologies) (P04070 43-197, form in doubt, chain 1 of 2): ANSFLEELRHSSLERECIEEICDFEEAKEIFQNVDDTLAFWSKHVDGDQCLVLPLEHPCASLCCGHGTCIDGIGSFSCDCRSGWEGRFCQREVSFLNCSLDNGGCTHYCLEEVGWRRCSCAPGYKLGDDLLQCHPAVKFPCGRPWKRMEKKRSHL
Sequence of Activated Protein C (Haematologic Technologies) (P04070 212-461, form in doubt, chain 2 of 2): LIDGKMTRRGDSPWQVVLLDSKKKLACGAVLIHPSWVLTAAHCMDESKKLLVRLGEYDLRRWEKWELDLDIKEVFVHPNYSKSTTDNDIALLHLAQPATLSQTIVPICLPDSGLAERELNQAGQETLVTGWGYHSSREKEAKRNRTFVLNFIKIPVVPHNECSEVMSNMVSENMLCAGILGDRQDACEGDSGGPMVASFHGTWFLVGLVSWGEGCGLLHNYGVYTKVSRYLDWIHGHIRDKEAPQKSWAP
Sequence of Hepsin (residues 45-417) (P05981 45-417 limits assumed): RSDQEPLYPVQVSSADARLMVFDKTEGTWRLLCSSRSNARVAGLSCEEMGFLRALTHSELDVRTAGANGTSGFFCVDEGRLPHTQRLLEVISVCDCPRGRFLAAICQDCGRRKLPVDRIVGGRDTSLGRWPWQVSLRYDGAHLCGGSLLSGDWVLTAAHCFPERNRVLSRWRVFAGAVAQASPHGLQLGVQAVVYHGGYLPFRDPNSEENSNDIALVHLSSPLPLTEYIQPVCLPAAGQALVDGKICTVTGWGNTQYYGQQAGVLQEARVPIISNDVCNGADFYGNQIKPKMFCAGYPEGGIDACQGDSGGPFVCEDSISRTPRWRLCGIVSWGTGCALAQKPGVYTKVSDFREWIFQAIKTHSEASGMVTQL
Sequence of Bovine trypsin (Worthington) (P00760 24-246): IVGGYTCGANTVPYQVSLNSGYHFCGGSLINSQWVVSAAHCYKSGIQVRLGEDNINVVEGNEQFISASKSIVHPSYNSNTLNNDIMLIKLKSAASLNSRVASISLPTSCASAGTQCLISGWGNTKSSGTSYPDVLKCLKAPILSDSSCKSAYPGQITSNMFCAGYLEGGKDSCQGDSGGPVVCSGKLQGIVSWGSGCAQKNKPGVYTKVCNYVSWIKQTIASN
Sequence of Plasmin (Haematologic Technologies) (P00747 97-810 limits assumed): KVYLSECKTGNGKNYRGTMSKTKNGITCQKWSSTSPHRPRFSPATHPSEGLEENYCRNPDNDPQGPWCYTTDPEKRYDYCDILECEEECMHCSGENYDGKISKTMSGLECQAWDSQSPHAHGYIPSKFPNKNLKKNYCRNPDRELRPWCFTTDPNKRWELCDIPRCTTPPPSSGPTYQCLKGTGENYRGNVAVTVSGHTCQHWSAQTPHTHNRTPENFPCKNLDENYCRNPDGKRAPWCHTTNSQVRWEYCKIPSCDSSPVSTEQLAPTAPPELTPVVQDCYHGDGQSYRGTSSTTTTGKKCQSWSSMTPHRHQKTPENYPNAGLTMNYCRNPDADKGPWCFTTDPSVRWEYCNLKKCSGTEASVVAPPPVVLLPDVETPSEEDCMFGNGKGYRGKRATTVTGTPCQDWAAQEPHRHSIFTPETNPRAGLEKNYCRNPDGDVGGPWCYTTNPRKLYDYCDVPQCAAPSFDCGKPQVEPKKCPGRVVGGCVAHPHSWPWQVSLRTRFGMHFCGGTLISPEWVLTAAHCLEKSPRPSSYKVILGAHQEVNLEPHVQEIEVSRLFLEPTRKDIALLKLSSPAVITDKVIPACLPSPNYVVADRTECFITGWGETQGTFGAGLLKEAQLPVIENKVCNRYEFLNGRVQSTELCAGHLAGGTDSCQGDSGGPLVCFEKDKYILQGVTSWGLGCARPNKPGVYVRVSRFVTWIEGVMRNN
Sequence of Plasma kallikrein (American Diagnostica) (P03952 20-638 limits assumed): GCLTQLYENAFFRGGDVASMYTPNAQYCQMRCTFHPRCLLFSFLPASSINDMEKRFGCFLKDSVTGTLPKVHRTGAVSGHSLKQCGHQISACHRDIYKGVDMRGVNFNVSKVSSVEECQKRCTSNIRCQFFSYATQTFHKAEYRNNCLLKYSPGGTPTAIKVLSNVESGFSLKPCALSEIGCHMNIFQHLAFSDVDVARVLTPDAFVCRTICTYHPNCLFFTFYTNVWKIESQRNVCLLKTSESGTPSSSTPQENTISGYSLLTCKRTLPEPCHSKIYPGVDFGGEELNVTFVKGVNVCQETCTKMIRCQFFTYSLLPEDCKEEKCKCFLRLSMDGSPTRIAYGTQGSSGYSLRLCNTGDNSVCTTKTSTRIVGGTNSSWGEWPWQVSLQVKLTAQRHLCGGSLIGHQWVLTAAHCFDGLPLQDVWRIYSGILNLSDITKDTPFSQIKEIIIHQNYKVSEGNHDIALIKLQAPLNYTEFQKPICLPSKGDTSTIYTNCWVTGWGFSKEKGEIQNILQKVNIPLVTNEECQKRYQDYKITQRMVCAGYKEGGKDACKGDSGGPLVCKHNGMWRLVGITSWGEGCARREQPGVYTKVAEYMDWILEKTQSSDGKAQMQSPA
Sequence of tPA (Activase, Genentech) (P00750 36-562 limits assumed): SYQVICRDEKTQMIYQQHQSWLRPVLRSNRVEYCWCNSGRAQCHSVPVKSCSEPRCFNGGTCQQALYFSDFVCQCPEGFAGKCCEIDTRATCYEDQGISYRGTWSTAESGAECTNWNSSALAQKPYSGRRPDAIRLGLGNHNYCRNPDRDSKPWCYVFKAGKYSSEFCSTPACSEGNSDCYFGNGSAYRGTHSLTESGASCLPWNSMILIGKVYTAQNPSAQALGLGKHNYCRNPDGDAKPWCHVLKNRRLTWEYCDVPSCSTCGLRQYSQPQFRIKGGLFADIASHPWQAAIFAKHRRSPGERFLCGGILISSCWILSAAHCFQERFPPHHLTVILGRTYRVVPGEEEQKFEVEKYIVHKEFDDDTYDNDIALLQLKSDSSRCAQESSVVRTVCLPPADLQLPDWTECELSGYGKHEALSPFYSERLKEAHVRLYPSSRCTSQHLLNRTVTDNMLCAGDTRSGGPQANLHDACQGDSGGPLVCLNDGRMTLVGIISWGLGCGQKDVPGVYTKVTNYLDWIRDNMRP
Sequence of Factor Xa (Haematologic Technologies) (P00742 41-179 limits assumed, chain 1 of 2): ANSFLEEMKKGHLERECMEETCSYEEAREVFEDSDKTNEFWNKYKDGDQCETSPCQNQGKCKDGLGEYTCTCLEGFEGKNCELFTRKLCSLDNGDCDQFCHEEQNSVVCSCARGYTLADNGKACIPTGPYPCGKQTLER
Sequence of Factor Xa (Haematologic Technologies) (P00742 235-488 limits assumed, chain 2 of 2): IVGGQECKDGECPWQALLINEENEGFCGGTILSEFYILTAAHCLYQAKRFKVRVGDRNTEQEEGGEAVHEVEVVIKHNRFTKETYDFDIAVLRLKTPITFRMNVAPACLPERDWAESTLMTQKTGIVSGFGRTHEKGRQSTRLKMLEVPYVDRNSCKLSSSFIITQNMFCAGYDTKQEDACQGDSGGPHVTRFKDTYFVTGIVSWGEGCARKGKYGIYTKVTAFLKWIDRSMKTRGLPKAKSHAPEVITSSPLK

B1: First Kunitz domain (KD1) of human HAI-1B, amino acids 246-303 of the precursor, with N-terminal polyhistidine leader (other)
chain: MKHQHQHQHQHQHQMHQTEDYCLASNKVGRCRGSFPRWYYDPTEQICKSFVYGGCLGNKNNYLREEECILACRGV
IC50 (nM), inhibition of enzyme activity on chromogenic substrate [1]: 4 nM
IC50 (nM), inhibition of enzyme activity on chromogenic substrate [2]: > 1000 nM
IC50 (nM), inhibition of enzyme activity on chromogenic substrate [3]: > 1000 nM
IC50 (nM), inhibition of enzyme activity on chromogenic substrate [4]: > 1000 nM
IC50 (nM), inhibition of enzyme activity on chromogenic substrate [5]: > 1000 nM
IC50 (nM), inhibition of enzyme activity on chromogenic substrate [6]: > 1000 nM
IC50 (nM), inhibition of enzyme activity on chromogenic substrate [7]: > 1000 nM
IC50 (nM), inhibition of enzyme activity on chromogenic substrate [8]: > 1000 nM
IC50 (nM), inhibition of enzyme activity on chromogenic substrate [9]: > 1000 nM
IC50 (nM), inhibition of enzyme activity on chromogenic substrate [10]: > 1000 nM
IC50 (nM), inhibition of enzyme activity on chromogenic substrate [11]: 1.7 nM
IC50 (nM), inhibition of enzyme activity on chromogenic substrate [12]: 6.7 nM
IC50 (nM), inhibition of enzyme activity on chromogenic substrate [13]: 0.7 nM
IC50 (nM), inhibition of enzyme activity on chromogenic substrate [14]: 115 nM
IC50 (nM), inhibition of enzyme activity on chromogenic substrate [15]: 21 nM
IC50 (nM), inhibition of enzyme activity on chromogenic substrate [16]: > 1000 nM
